The source of these data is PMC2834951 (Nature structural & molecular biology, 2009).

Data set [1] concerns the molecule itself. Briefly: SAXS.
Data set [2] has as its target T1, human Ubc13 (human, UniProt P61088 1-152).
T1 sequence (looked up): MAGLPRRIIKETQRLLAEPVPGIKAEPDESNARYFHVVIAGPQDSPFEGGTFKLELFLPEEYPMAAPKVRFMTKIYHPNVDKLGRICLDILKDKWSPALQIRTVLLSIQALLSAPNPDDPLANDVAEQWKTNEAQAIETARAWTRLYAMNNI
Briefly: SEC. On the technique in general: In gel filtration, larger molecules generally elute earlier.

B1: human TRAF6 RZ123 (residues 50-211), wild type (domain or fragment, UniProt Q9Y4K3 50-211, looked up)
chain: MEEIQGYDVEFDPPLESKYECPICLMALREAVQTPCGHRFCKACIIKSIRDAGHKCPVDNEILLENQLFPDNFAKREILSLMVKCPNEGCLHKMELRHLEDHQAHCEFALMDCPQCQRPFQKFHINIHILKDCPRRQVSCDNCAASMAFEDKEIHDQNCPLA
What is called stoichiometry N is a count of units in the complex or per binding partner. With B1, the “stoichiometry N” value in data set [1] was 2.

B2: human TRAF6 RZ1 (residues 50-159) (domain or fragment, UniProt Q9Y4K3 50-159, looked up)
chain: MEEIQGYDVEFDPPLESKYECPICLMALREAVQTPCGHRFCKACIIKSIRDAGHKCPVDNEILLENQLFPDNFAKREILSLMVKCPNEGCLHKMELRHLEDHQAHCEFAL
Take B2: in data set [2], the binding result is “binds”.

B3: human TRAF6 RZ12 (residues 50-187) (domain or fragment, UniProt Q9Y4K3 50-187, looked up)
chain: MEEIQGYDVEFDPPLESKYECPICLMALREAVQTPCGHRFCKACIIKSIRDAGHKCPVDNEILLENQLFPDNFAKREILSLMVKCPNEGCLHKMELRHLEDHQAHCEFALMDCPQCQRPFQKFHINIHILKDCPRRQV
On to B3, for which the binding result in data set [2] was “binds”.
